Assay results from IntAct's records for PubMed 22000412.

The substances below were run against bub1b_human BUB1B (UniProt O60566).
bub1b_human BUB1B, sequence (O60566 whole entry): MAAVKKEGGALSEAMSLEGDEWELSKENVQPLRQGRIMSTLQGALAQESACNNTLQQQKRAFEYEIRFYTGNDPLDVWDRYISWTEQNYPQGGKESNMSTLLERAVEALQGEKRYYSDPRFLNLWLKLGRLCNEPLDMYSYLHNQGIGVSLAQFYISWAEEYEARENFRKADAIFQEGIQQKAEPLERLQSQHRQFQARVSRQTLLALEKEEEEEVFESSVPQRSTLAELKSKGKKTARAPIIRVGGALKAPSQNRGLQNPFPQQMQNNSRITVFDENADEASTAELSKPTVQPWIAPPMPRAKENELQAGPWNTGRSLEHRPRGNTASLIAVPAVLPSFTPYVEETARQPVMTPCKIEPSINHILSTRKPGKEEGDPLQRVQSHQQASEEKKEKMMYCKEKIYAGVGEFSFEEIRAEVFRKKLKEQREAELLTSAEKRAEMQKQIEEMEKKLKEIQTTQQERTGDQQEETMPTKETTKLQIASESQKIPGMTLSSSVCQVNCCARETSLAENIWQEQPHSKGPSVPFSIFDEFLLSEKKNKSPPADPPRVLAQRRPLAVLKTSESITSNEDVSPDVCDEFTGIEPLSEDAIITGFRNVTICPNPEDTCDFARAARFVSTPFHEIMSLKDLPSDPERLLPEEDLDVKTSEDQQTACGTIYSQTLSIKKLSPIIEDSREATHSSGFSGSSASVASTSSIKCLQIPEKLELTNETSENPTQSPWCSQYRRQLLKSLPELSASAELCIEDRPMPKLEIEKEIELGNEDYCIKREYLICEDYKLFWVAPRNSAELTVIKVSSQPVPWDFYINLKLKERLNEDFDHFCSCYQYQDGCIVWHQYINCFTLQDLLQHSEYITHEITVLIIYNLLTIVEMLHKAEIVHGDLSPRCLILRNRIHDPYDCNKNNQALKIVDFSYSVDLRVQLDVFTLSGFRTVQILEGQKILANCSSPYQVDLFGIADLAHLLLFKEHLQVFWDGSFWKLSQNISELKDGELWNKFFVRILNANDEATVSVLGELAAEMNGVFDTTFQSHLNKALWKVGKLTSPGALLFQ

Effect of a mutation on the interaction, disrupting interaction:
Outer kinetochore KNL1 complex subunit KNL1 (Homo sapiens), Q8NG31-2 F215A;F218A
Outer kinetochore KNL1 complex subunit KNL1 (Homo sapiens), Q8NG31-2 F215A;I219A
Outer kinetochore KNL1 complex subunit KNL1 (Homo sapiens), Q8NG31-2 I213A;F215A;F218A
